Source: PMC7567794 (Scientific Reports, 2020)

The binders below were run against T1, tissue factor (S33 to E251) (Homo sapiens, UniProt P13726) (assay: SPR; Biacore 8K; TF immobilised on a CM5 chip by amine coupling (450-750 response units); Fab as analyte; single-cycle kinetics, association 120 s, dissociation 1800 s, no regeneration; PBS with 0.005% Tween-20; three measurements). Details: both partners purified.
T1 construct: tissue factor (TF), residues S33 to E251; the antigen of the antibody D3h44 in PDB 1JPS; The tag was removed with Ulp1; tag-free TF was used; Antigen residues named in the text (S202, K169, P194, I152) follow the numbering of PDB 1JPS, not that of the construct limits; also called TF; antigen; source: E. coli BL21 (DE3), purified (Ni-NTA, SEC); not shown: His6, N-terminal, cleaved; SUMO, …
T1 sequence (P13726 33-251): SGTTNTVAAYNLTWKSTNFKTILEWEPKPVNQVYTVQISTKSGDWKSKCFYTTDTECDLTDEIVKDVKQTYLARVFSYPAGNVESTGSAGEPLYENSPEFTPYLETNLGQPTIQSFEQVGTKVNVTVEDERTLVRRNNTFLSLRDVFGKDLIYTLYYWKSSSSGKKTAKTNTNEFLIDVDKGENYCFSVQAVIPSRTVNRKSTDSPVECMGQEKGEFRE

Row | Binder | Kd | koff | kon | binding result
1 | D3h44 Fab L-H91E (Fab, V domains shown, as the heavy chain of m2 (PDB 1JPS chain H); as the light chain of m2 (PDB 1JPS chain L) with the stated change; Tag as for m2; source: ExpiCHO, purified (Ni-NTA, SEC)) VH: EVQLVESGGGLVQPGGSLRLSCAASGFNIKEYYMHWVRQAPGKGLEWVGLIDPEQGNTIYDPKFQDRATISADNSKNTAYLQMNSLRAEDTAVYYCARDTAAYFDYWGQGTLVTVSS VL: DIQMTQSPSSLSASVGDRVTITCRASRDIKSYLNWYQQKPGKAPKVLIYYATSLAEGVPSRFSGSGSGTDYTLTISSLQPEDFATYYCLQEGESPWTFGQGTKVEIK | 0.02 nM | 2.7e-05 s⁻¹ | 1.4e+06 M⁻¹ s⁻¹ | 
2 | D3h44 Fab L-H91N (Fab, V domains shown, as the heavy chain of m2 (PDB 1JPS chain H); as the light chain of m2 (PDB 1JPS chain L) with the stated change; Tag as for m2; source: ExpiCHO, purified (Ni-NTA, SEC)) VH: EVQLVESGGGLVQPGGSLRLSCAASGFNIKEYYMHWVRQAPGKGLEWVGLIDPEQGNTIYDPKFQDRATISADNSKNTAYLQMNSLRAEDTAVYYCARDTAAYFDYWGQGTLVTVSS VL: DIQMTQSPSSLSASVGDRVTITCRASRDIKSYLNWYQQKPGKAPKVLIYYATSLAEGVPSRFSGSGSGTDYTLTISSLQPEDFATYYCLQNGESPWTFGQGTKVEIK | 0.2 nM | 0.00026 s⁻¹ | 1.3e+06 M⁻¹ s⁻¹ | 
3 | D3h44 Fab H-A101V (Fab, V domains shown, as the heavy chain of m2 (PDB 1JPS chain H) with the stated change; as the light chain of m2 (PDB 1JPS chain L); Tag as for m2; source: ExpiCHO, purified (Ni-NTA, SEC)) VH: EVQLVESGGGLVQPGGSLRLSCAASGFNIKEYYMHWVRQAPGKGLEWVGLIDPEQGNTIYDPKFQDRATISADNSKNTAYLQMNSLRAEDTAVYYCARDTVAYFDYWGQGTLVTVSS VL: DIQMTQSPSSLSASVGDRVTITCRASRDIKSYLNWYQQKPGKAPKVLIYYATSLAEGVPSRFSGSGSGTDYTLTISSLQPEDFATYYCLQHGESPWTFGQGTKVEIK | 0.14 nM | 0.00018 s⁻¹ | 1.3e+06 M⁻¹ s⁻¹ | 
4 | D3h44 Fab H-I59H (Fab, V domains shown, as the heavy chain of m2 (PDB 1JPS chain H) with the stated change; as the light chain of m2 (PDB 1JPS chain L); Tag as for m2; source: ExpiCHO, purified (Ni-NTA, SEC)) VH: EVQLVESGGGLVQPGGSLRLSCAASGFNIKEYYMHWVRQAPGKGLEWVGLIDPEQGNTHYDPKFQDRATISADNSKNTAYLQMNSLRAEDTAVYYCARDTAAYFDYWGQGTLVTVSS VL: DIQMTQSPSSLSASVGDRVTITCRASRDIKSYLNWYQQKPGKAPKVLIYYATSLAEGVPSRFSGSGSGTDYTLTISSLQPEDFATYYCLQHGESPWTFGQGTKVEIK | 15 nM | 0.038 s⁻¹ | 3.6e+06 M⁻¹ s⁻¹ | 
5 | D3h44 Fab H-K30Q (Fab, V domains shown, as the heavy chain of m2 (PDB 1JPS chain H) with the stated change; as the light chain of m2 (PDB 1JPS chain L); Tag as for m2; source: ExpiCHO, purified (Ni-NTA, SEC)) VH: EVQLVESGGGLVQPGGSLRLSCAASGFNIQEYYMHWVRQAPGKGLEWVGLIDPEQGNTIYDPKFQDRATISADNSKNTAYLQMNSLRAEDTAVYYCARDTAAYFDYWGQGTLVTVSS VL: DIQMTQSPSSLSASVGDRVTITCRASRDIKSYLNWYQQKPGKAPKVLIYYATSLAEGVPSRFSGSGSGTDYTLTISSLQPEDFATYYCLQHGESPWTFGQGTKVEIK | 0.097 nM | 0.00014 s⁻¹ | 1.5e+06 M⁻¹ s⁻¹ | 
6 | D3h44 Fab L-H91S (Fab, V domains shown, as the heavy chain of m2 (PDB 1JPS chain H); as the light chain of m2 (PDB 1JPS chain L) with the stated change; Tag as for m2; source: ExpiCHO, purified (Ni-NTA, SEC)) VH: EVQLVESGGGLVQPGGSLRLSCAASGFNIKEYYMHWVRQAPGKGLEWVGLIDPEQGNTIYDPKFQDRATISADNSKNTAYLQMNSLRAEDTAVYYCARDTAAYFDYWGQGTLVTVSS VL: DIQMTQSPSSLSASVGDRVTITCRASRDIKSYLNWYQQKPGKAPKVLIYYATSLAEGVPSRFSGSGSGTDYTLTISSLQPEDFATYYCLQSGESPWTFGQGTKVEIK | 17 nM | 0.059 s⁻¹ | 1.6e+07 M⁻¹ s⁻¹ | 
7 | D3h44 Fab H-Y33Q/H-A101R double-point mutant (Fab, V domains shown, as the heavy chain of m2 (PDB 1JPS chain H) with the stated changes; as the light chain of m2 (PDB 1JPS chain L); Tag as for m2; source: ExpiCHO, purified (Ni-NTA, SEC)) VH: EVQLVESGGGLVQPGGSLRLSCAASGFNIKEYQMHWVRQAPGKGLEWVGLIDPEQGNTIYDPKFQDRATISADNSKNTAYLQMNSLRAEDTAVYYCARDTRAYFDYWGQGTLVTVSS VL: DIQMTQSPSSLSASVGDRVTITCRASRDIKSYLNWYQQKPGKAPKVLIYYATSLAEGVPSRFSGSGSGTDYTLTISSLQPEDFATYYCLQHGESPWTFGQGTKVEIK |  |  |  | no binding
8 | D3h44 Fab H-A101S/H-A102H double-point mutant (Fab, V domains shown, as the heavy chain of m2 (PDB 1JPS chain H) with the stated changes; as the light chain of m2 (PDB 1JPS chain L); Tag as for m2; source: ExpiCHO, purified (Ni-NTA, SEC)) VH: EVQLVESGGGLVQPGGSLRLSCAASGFNIKEYYMHWVRQAPGKGLEWVGLIDPEQGNTIYDPKFQDRATISADNSKNTAYLQMNSLRAEDTAVYYCARDTSHYFDYWGQGTLVTVSS VL: DIQMTQSPSSLSASVGDRVTITCRASRDIKSYLNWYQQKPGKAPKVLIYYATSLAEGVPSRFSGSGSGTDYTLTISSLQPEDFATYYCLQHGESPWTFGQGTKVEIK | 0.15 nM | 0.00018 s⁻¹ | 1.2e+06 M⁻¹ s⁻¹ | 
9 | D3h44 Fab H-N57Y (Fab, V domains shown, as the heavy chain of m2 (PDB 1JPS chain H) with the stated change; as the light chain of m2 (PDB 1JPS chain L); Tag as for m2; source: ExpiCHO, purified (Ni-NTA, SEC)) VH: EVQLVESGGGLVQPGGSLRLSCAASGFNIKEYYMHWVRQAPGKGLEWVGLIDPEQGYTIYDPKFQDRATISADNSKNTAYLQMNSLRAEDTAVYYCARDTAAYFDYWGQGTLVTVSS VL: DIQMTQSPSSLSASVGDRVTITCRASRDIKSYLNWYQQKPGKAPKVLIYYATSLAEGVPSRFSGSGSGTDYTLTISSLQPEDFATYYCLQHGESPWTFGQGTKVEIK | 0.015 nM | 1.8e-05 s⁻¹ | 1.3e+06 M⁻¹ s⁻¹ | 
10 | D3h44 Fab H-K30Q/H-E54H double-point mutant (Fab, V domains shown, as the heavy chain of m2 (PDB 1JPS chain H) with the stated changes; as the light chain of m2 (PDB 1JPS chain L); Tag as for m2; source: ExpiCHO, purified (Ni-NTA, SEC)) VH: EVQLVESGGGLVQPGGSLRLSCAASGFNIQEYYMHWVRQAPGKGLEWVGLIDPHQGNTIYDPKFQDRATISADNSKNTAYLQMNSLRAEDTAVYYCARDTAAYFDYWGQGTLVTVSS VL: DIQMTQSPSSLSASVGDRVTITCRASRDIKSYLNWYQQKPGKAPKVLIYYATSLAEGVPSRFSGSGSGTDYTLTISSLQPEDFATYYCLQHGESPWTFGQGTKVEIK | 0.029 nM | 2.6e-05 s⁻¹ | 940000 M⁻¹ s⁻¹ | 
11 | D3h44 Fab L-H91Q (Fab, V domains shown, as the heavy chain of m2 (PDB 1JPS chain H); as the light chain of m2 (PDB 1JPS chain L) with the stated change; Tag as for m2; source: ExpiCHO, purified (Ni-NTA, SEC)) VH: EVQLVESGGGLVQPGGSLRLSCAASGFNIKEYYMHWVRQAPGKGLEWVGLIDPEQGNTIYDPKFQDRATISADNSKNTAYLQMNSLRAEDTAVYYCARDTAAYFDYWGQGTLVTVSS VL: DIQMTQSPSSLSASVGDRVTITCRASRDIKSYLNWYQQKPGKAPKVLIYYATSLAEGVPSRFSGSGSGTDYTLTISSLQPEDFATYYCLQQGESPWTFGQGTKVEIK | 0.23 nM | 0.00038 s⁻¹ | 1.7e+06 M⁻¹ s⁻¹ | 
12 | D3h44 Fab L-N34D (Fab, V domains shown, as the heavy chain of m2 (PDB 1JPS chain H); as the light chain of m2 (PDB 1JPS chain L) with the stated change; Tag as for m2; source: ExpiCHO, purified (Ni-NTA, SEC)) VH: EVQLVESGGGLVQPGGSLRLSCAASGFNIKEYYMHWVRQAPGKGLEWVGLIDPEQGNTIYDPKFQDRATISADNSKNTAYLQMNSLRAEDTAVYYCARDTAAYFDYWGQGTLVTVSS VL: DIQMTQSPSSLSASVGDRVTITCRASRDIKSYLDWYQQKPGKAPKVLIYYATSLAEGVPSRFSGSGSGTDYTLTISSLQPEDFATYYCLQHGESPWTFGQGTKVEIK | 0.31 nM | 0.00062 s⁻¹ | 2e+06 M⁻¹ s⁻¹ | 
13 | D3h44 Fab L-N34D/L-H91S double-point mutant (Fab, V domains shown, as the heavy chain of m2 (PDB 1JPS chain H); as the light chain of m2 (PDB 1JPS chain L) with the stated changes; Tag as for m2; source: ExpiCHO, purified (Ni-NTA, SEC)) VH: EVQLVESGGGLVQPGGSLRLSCAASGFNIKEYYMHWVRQAPGKGLEWVGLIDPEQGNTIYDPKFQDRATISADNSKNTAYLQMNSLRAEDTAVYYCARDTAAYFDYWGQGTLVTVSS VL: DIQMTQSPSSLSASVGDRVTITCRASRDIKSYLDWYQQKPGKAPKVLIYYATSLAEGVPSRFSGSGSGTDYTLTISSLQPEDFATYYCLQSGESPWTFGQGTKVEIK | 0.025 nM | 3e-05 s⁻¹ | 1.2e+06 M⁻¹ s⁻¹ | 
